Measurements: US20140056882A1

Biological target: mouse G-CSF (mGCSF, R&D Systems Cat#414-CS) (mouse) (UniProt P09920)
Assay: cell-based or functional assay

Chain of UniProt P09920 (P09920 31-208 limits assumed): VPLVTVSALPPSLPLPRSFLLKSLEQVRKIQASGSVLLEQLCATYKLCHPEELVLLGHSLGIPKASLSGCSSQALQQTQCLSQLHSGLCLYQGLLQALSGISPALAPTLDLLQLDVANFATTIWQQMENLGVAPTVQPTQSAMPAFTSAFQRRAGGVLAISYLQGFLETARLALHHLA

Row | Substance | IC50, inhibition of mG-CSF proliferation of hG-CSFR BaF3 cells (MTS reduction)
1 | soluble hG-CSFR-Fc protein (from UniProt Q99062 25-332) (Fc fusion) | 0.022 nM
2 | R&D Systems antibody MAB414 (rat anti-mouse G-CSF monoclonal antibody, clone 67604) | 0.01 nM
